{"source": "patent US20230391844", "key": {"[1]": {"test_system": "mAb-PCL(15AA)-IL2-PCL(15AA)-IL2Rα"}, "[2]": {"test_system": "mAb-PCL(15AA)-IL2-PCL(20AA)-IL2Rα"}}}
{"substance": "recombinant human uPA (R&D Cat #1310-SE)", "values": [{"measurement": "release of free IL2 after uPA digestion (reducing SDS-PAGE, western blot probed with biotinylated anti-hIL2)", "setting": "[1]", "result": "Protease digestion of the IL2 proproteins with uPA resulted in the release of free IL2 from both IL2 proproteins"}, {"measurement": "release of free IL2 after uPA digestion (reducing SDS-PAGE, western blot probed with biotinylated anti-hIL2)", "setting": "[2]", "result": "the IL2 proprotein construct comprising a 20AA linker between IL2 and IL2Rα domains displayed a more complete linker digestion and IL2 release relative to the construct comprising a 15AA linker between IL2 and IL2Rα"}]}
